In patent US12121566B2, “Methods for treating gout” (Horizon Therapeutics USA, Inc., priority 2019, dated 2024):

Legend:
rabbits = test: Reproductive toxicity in rabbits; assay type: in vivo, rabbit
[1] = system: patients with chronic gout refractory to conventional therapy; test: Adverse reactions in pre-marketing controlled clinical trials of KXX; assay type: in vivo, human
Description: During the second 3 months of treatment, a lower proportion of pegloticase-treated patients experienced flares than patients receiving placebo. The incidence of flares during this time period was lowest in the group receiving pegloticase 8 mg every 2 weeks than in the group who received pegloticase 8 mg every 4 weeks, as was the incidence of infusion-related reactions (26% with biweekly dosing vs. 40% with the every-4-week dosing regimen). Both infusion reactions (IRs) and gout flares were least common in patients with sustained urate-lowering responses to treatment and those who received bi-weekly treatment. In most pegloticase-treated patients with IRs, a loss of response to pegloticase (return to SUA>6 mg/dL) preceded the time of the first IR (20/21; 95%).
The most commonly reported serious adverse reactions from pre-marketing controlled clinical trials were anaphylaxis, which occurred at a frequency of 6.5% in patients treated with KXX 8 mg every 2 weeks, compared to none with placebo; infusion reactions, which occurred at a frequency of 26% in patients treated with KXX 8 mg every 2 weeks, compared to 5% treated with placebo; and gout flares, which were more common during the first 3 months of treatment with KXX compared with placebo. All patients in pre-marketing controlled clinical trials were pre-treated with an oral antihistamine, intravenous corticosteroid and/or acetaminophen to prevent anaphylaxis and infusion reaction.
The data described below reflect exposure to KXX in patients with chronic gout refractory to conventional therapy in two replicate randomized, placebo-controlled, double-blind 6-month clinical trials: 85 patients were treated with KXX 8 mg every 2 weeks; 84 patients were treated with KXX 8 mg every 4 weeks; and 43 patients were treated with placebo. These patients were between the ages of 23 and 89 years (average 55 years); 173 patients were male and 39 were female; and 143 patients were White/Caucasian, 27 were Black/African American, 24 were Hispanic/Latino and 18 were all other ethnicities. Common co-morbid conditions among the enrolled patients included hypertension (72%), dyslipidemia (49%), chronic kidney disease (28%), diabetes (24%), coronary artery disease (18%), arrhythmia (16%), and cardiac failure/left ventricular dysfunction (12%).
Diagnostic criteria of anaphylaxis were skin or mucosal tissue involvement, and, either airway compromise, and/or reduced blood pressure with or without associated symptoms, and a temporal relationship to KXX or placebo injection with no other identifiable cause. Using these clinical criteria, anaphylaxis was identified in 14 (5.1%) of 273 total patients studied in the clinical program of IV KXX. The frequency was 6.5% for the every 2-week dosing regimen (8 of 123 patients), and 4.8% for the 4-week dosing frequency (6 of 126) of KXX. There were no cases of anaphylaxis in patients receiving placebo.

dogs = test: Animal toxicology in dogs (IV); assay type: in vivo, dog; conditions: for vacuoles in the spleen, adrenal glands, and heart after recovery: 1-year recovery period; for vacuoles in the liver, duodenum, and jejunum after recovery: 3-month recovery period
Description: Organs with cytoplasmic vacuoles included the spleen, adrenal gland, liver, heart, duodenum, and jejunum. Vacuoles in the spleen, adrenal glands, and heart persisted after a 1-year recovery period at pegloticase dose (≥1.5 mg/kg in dogs) approximately 5 times the MRHD, but were absent at a dose similar to the MRHD. Vacuoles in the liver, duodenum, and jejunum persisted after a 3-month recovery period at a pegloticase dose (10 mg/kg in dogs) approximately 30 times the MRHD, but were absent at doses less than or equal to 1.5 mg/kg approximately 5 times and similar to the MRHD. The edema and histiocyte infiltration in the aortic outflow tract was absent after recovery periods of 6 and 12 months, respectively.
Vacuoles in the spleen, liver, duodenum, and jejunum were within macrophages and most likely represented phagocytic removal of pegloticase from the circulation. […] In the aortic outflow tract of the heart, vacuoles were in the cytoplasm of endothelial cells in the intimal lining of the aorta. In the adrenal gland, vacuoles were located within cortical cells in the Zona reticularis and Zona fasciculata. The clinical significance of these findings and the functional consequences are unknown.

[2] = KXX 8 mg every 2 weeks (N = 85)

pegloticase
mean fetal body weights (rabbits; approximately 25 times the MRHD, maternal doses up to 10 mg/kg twice weekly): No effects
mean fetal and pup body weights (rabbits; approximately 75 times the MRHD, maternal doses up to 30 mg/kg every other day): Statistically significant decreases
teratogenicity (rabbits; approximately 75 times the MRHD, maternal doses up to 30 mg/kg twice weekly): not teratogenic
frequency of anaphylaxis ([1]; 4-week dosing frequency (6 of 126)): 4.8%
anaphylaxis in total patients studied in the clinical program of IV KXX ([1]; 14 of 273 total patients): 5.1%
patients with infusion reactions ([1]; KXX 8 mg every 2 weeks): 26%
Adverse reaction: Anaphylaxis [1, 2]: 4 (5%) N (%)
Adverse reaction: Chest Pain [1, 2]: 5 (6%) N (%)
Adverse reaction: Constipation [1, 2]: 5 (6%) N (%)
Adverse reaction: Contusion or Ecchymosis [1, 2]: 9 (11%) N (%)
Adverse reaction: Gout Flare [1, 2]: 65 (77%) N (%)
Adverse reaction: Infusion reaction [1, 2]: 22 (26%) N (%)
Adverse reaction: Nasopharyngitis [1, 2]: 6 (7%) N (%)
Adverse reaction: Nausea [1, 2]: 10 (12%) N (%)
Adverse reaction: Vomiting [1, 2]: 4 (5%) N (%)
patients with infusion reactions ([1]; KXX 8 mg every 4 weeks): 41%
cases of congestive heart failure exacerbation ([1]; during the trials, KXX 8 mg every 2 weeks): Two
frequency of anaphylaxis ([1]; every 2 weeks dosing regimen (8 of 123 patients)): 6.5%
percentage of patients with any gout flare ([1]; first 3 months, KXX 8 mg every 2 weeks): 74%
percentage of patients with any gout flare ([1]; first 3 months, KXX 8 mg every 4 weeks): 81%
infusion reaction manifestation: chest discomfort, frequency ([1]; human, in vivo): 9.5%
infusion reaction manifestation: chest pain, frequency ([1]; human, in vivo): 9.5%
infusion reaction manifestation: dyspnea, frequency ([1]; human, in vivo): 7.1%
infusion reaction manifestation: erythema, frequency ([1]; human, in vivo): 9.5%
infusion reaction manifestation: pruritus, frequency ([1]; human, in vivo): 9.5%
infusion reaction manifestation: urticaria, frequency ([1]; human, in vivo): 10.6%
infusion reactions occurring with the first infusion ([1]; human, in vivo): approximately 3%
infusion reactions that occurred during the time of infusion ([1]; human, in vivo): approximately 91%
reactions in patients with glucose-6-phosphate dehydrogenase (G6PD) deficiency ([1]; human, in vivo): Life threatening hemolytic reactions and methemoglobinemia have been reported
percentage of patients with any gout flare ([1]; subsequent 3 months, KXX 8 mg every 2 weeks): 41%
percentage of patients with any gout flare ([1]; subsequent 3 months, KXX 8 mg every 4 weeks): 57%
vacuoles in the spleen, adrenal glands, and heart after recovery (dogs; dose similar to the MRHD): absent
vacuoles in the spleen, adrenal glands, and heart after recovery (dogs; ≥1.5 mg/kg, approximately 5 times the MRHD): persisted
vacuoles in the liver, duodenum, and jejunum after recovery (dogs; 10 mg/kg, approximately 30 times the MRHD): persisted
vacuoles in the liver, duodenum, and jejunum after recovery (dogs; doses less than or equal to 1.5 mg/kg): absent
organ findings (dogs; IV doses of ≥0.4 mg/kg, similar to and higher than the MRHD): caused cytoplasmic vacuoles in multiple organs, and edema and histiocyte infiltration in the aortic outflow tract
edema and histiocyte infiltration in the aortic outflow tract after recovery (dogs; recovery periods of 6 and 12 months, respectively): absent
